These results are taken from patent US20190062442A1 (AstraZeneca / MedImmune, published 2019).

Positions count from the first letter of the chain named.

For experiment [1], the target named is T1, FLAG-tagged human PrP^c_N1 (recombinant N-terminal fragment of cellular prion protein, 23-111 amino-acids) (human, UniProt P04156 23-111).
T1 sequence: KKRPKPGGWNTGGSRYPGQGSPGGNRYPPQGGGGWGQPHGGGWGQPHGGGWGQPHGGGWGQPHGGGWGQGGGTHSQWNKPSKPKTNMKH

Experiment [2] deals with T2, Human PrP^c_N1_Flag His protein (human, UniProt P04156 23-111).
T2 sequence: T1 sequence

In experiment [3] the target is full length cynomolgus PrP^c present on the cynomolgus CynoMK-1 cell line (cynomolgus monkey, UniProt P67992 23-230). As to the kind of experiment: flow cytometry, antibody at 5 µg/ml. (In general: Flow cytometry measures light scatter and fluorescence of single cells or particles in a stream.)
The target of experiment [4] is T3, FLAG-tagged Cynomolgus PrP^c_N1 (cynomolgus monkey, UniProt P67992 23-111).
T3 sequence: T1 sequence with S75N, N78H, N86S
As to the kind of experiment: direct HTRF binding assay.

B1: PrP^c-O0059 Hu IgG1 (antibody, V domains shown)
VH: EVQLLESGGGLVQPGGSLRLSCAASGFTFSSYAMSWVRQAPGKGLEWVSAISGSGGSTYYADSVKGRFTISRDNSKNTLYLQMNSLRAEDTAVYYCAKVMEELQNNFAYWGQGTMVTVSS
VL: QSVLTQPPSASGTPGQRVTISCSGERSDIGINYVSWYQQLPGTAPKLLIYTDDRRPPGVPDRFSASKSGTSASLAISGLRSEDEADYYCEAWHDVLGHPVFGGGTKLTVL
A word on the IC50: it is the point on the concentration scale where inhibition reaches its midpoint. The Kd is the free concentration of one partner at which half of the binding sites on the other are occupied at equilibrium, for simple one-to-one binding. A high value points to weaker binding. As usually defined, the koff is the rate constant with which the complex falls apart. A high value points to fast dissociation. The term kon denotes a measure of how fast the partners come together. Low values mean slow association, high ones fast association. For B1, the IC50 in experiment [1] is 0.225 nM. In experiment [2], this molecule had a Kd of 0.0235 nM, a koff of 1.33e-05 s⁻¹ and a kon of 564000 M⁻¹ s⁻¹. The binding result in experiment [3] is given as “binds”. For the same molecule, the binding result in experiment [4] is given as “binds”.
